# Test results as given in PMC4127636 (The Biochemical journal, 2012).
# Substitutions are numbered along the chain they refer to. In names and notes the source's numbering stands.
# B1: OLEI01171 (Oleispira antarctica) (protein)
# chain: MSIENLSSNKSFGGWHKQYSHVSNTLNCAMRFAIYLPPQASTGAKVPVLYWLSGLTCSDENFMQKAGAQRLAAELGIAIVAPDTSPRGEGVADDEGYDLGQGAGFYVNATQAPWNRHYQMYDYVVNELPELIESMFPVSDKRAIAGHSMGGHGALTIALRNPERYQSVSAFSPINNPVNCPWGQKAFTAYLGKDTDTWREYDASLLMRAAKQYVPALVDQGEADNFLAEQLKPEVLEAAASSNNYPLELRSHEGYDHSYYFIASFIEDHLRFHSNYLNA
# B2: OLEI01171 (Oleispira antarctica; C58A) (protein)
# chain: B1 chain with C57A
# B3: OLEI01171 (Oleispira antarctica; S59A) (protein)
# chain: B1 chain with S58A
# B4: OLEI01171 (Oleispira antarctica; N62A) (protein)
# chain: B1 chain with N61A
# B5: OLEI01171 (Oleispira antarctica; K66A) (protein)
# chain: B1 chain with K65A
# B6: OLEI01171 (Oleispira antarctica; Y98A) (protein)
# chain: B1 chain with Y97A
# B7: OLEI01171 (Oleispira antarctica; S173A) (protein)
# chain: B1 chain with S172A
# B8: OLEI01171 (Oleispira antarctica; A224K) (protein)
# chain: B1 chain with A223K
# B9: OLEI01171 (Oleispira antarctica; N226A) (protein)
# chain: B1 chain with N225A
# B10: OLEI01171 (Oleispira antarctica; N226K) (protein)
# chain: B1 chain with N225K
# Key:
# YeiG = biological target: T1, YeiG (Escherichia coli, UniProt P33018); experiment: esterase activity, temperature profile; type: biochemical; conditions: 50 mM potassium Hepes pH 8.0; temperature varied
# T1 sequence (P33018 1-278): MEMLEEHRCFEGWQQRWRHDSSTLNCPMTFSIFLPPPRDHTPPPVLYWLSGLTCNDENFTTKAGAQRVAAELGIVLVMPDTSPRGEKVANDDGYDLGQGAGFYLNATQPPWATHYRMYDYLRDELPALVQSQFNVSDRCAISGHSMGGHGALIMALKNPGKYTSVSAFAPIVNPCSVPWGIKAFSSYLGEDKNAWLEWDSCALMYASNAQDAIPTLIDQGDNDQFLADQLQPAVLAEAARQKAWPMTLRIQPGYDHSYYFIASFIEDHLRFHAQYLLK
# BioH = biological target: T2, BioH (Escherichia coli, UniProt P13001); experiment: esterase activity, temperature profile; type: biochemical; conditions: 50 mM potassium Hepes pH 8.0; temperature varied
# T2 sequence (P13001 1-256): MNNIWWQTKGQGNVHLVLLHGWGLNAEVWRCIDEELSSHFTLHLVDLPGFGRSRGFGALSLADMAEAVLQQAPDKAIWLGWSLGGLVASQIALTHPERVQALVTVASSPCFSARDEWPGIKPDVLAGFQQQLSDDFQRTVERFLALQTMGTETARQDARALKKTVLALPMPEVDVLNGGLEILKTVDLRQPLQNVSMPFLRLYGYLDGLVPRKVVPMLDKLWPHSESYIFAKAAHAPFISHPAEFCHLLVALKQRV
# Atu1476 = biological target: T3, Atu1476 (Agrobacterium fabrum, UniProt A9CJ11); experiment: esterase activity, temperature profile; type: biochemical; conditions: 50 mM potassium Hepes pH 8.0; temperature varied
# T3 sequence (A9CJ11 1-277): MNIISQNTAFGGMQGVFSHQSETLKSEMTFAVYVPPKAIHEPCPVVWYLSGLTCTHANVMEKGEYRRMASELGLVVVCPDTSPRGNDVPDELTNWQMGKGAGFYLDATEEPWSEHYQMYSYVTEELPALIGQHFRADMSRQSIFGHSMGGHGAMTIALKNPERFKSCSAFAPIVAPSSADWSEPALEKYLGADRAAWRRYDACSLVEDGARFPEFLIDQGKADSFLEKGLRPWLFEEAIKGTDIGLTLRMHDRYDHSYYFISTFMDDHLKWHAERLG
# [1] = substrate: CC(=O)Oc1cccc2ccccc12; experiment: spectrophotometric esterase assay; type: biochemical, Oleispira antarctica; conditions: 50 mM potassium Hepes pH 8.0, 20°C
# [2] = substrate: CCCC(=O)Oc1ccc([N+](=O)[O-])cc1; experiment: spectrophotometric esterase assay; type: biochemical, Oleispira antarctica; conditions: 0.4 M NaCl, 50 mM potassium Hepes pH 8.0, 20°C
# [3] = substrate: CC(=O)Oc1ccc([N+](=O)[O-])cc1; experiment: spectrophotometric esterase assay; type: biochemical, Oleispira antarctica; conditions: no salt, 50 mM potassium Hepes pH 8.0, 20°C
# [4] = substrate: CCCC(=O)Oc1cccc2ccccc12; experiment: spectrophotometric esterase assay; type: biochemical, Oleispira antarctica; conditions: 0.4 M NaCl, 50 mM potassium Hepes pH 8.0, 20°C
# [5] = substrate: CCC(=O)Oc1cccc2ccccc12; experiment: spectrophotometric esterase assay; type: biochemical, Oleispira antarctica; conditions: 0.4 M NaCl, 50 mM potassium Hepes pH 8.0, 20°C
# [6] = substrate: CCC(=O)Oc1ccc([N+](=O)[O-])cc1; experiment: spectrophotometric esterase assay; type: biochemical, Oleispira antarctica; conditions: 0.4 M NaCl, 50 mM potassium Hepes pH 8.0, 20°C
Molecule,Km ([1]; 0.4 M NaCl),kcat ([1]; 0.4 M NaCl),kcat/Km ([1]; 0.4 M NaCl),also measured
CCC(=O)Oc1ccc([N+](=O)[O-])cc1 [pNP-propionate],–,–,–,"esterase activity, temperature profile (YeiG): using α-naphthyl acetate (A), pNP-butyrate (B and D) and pNP-propionate (C) as substrates"
CCCC(=O)Oc1ccc([N+](=O)[O-])cc1 [pNP-butyrate],–,–,–,"esterase activity, temperature profile (BioH): using α-naphthyl acetate (A), pNP-butyrate (B and D) and pNP-propionate (C) as substrates; esterase activity, temperature profile (Atu1476): using α-naphthyl acetate (A), pNP-butyrate (B and D) and pNP-propionate (C) as substrates"
B1,–,–,–,Km ([1]; no salt): 400 ± 30 µM; kcat ([1]; no salt): 0.8 ± 0.02 s⁻¹; kcat/Km ([1]; no salt): 2000 M⁻¹ s⁻¹; Km [2]: 900 ± 300 µM; kcat [2]: 0.2 ± 0.03 s⁻¹; kcat/Km [2]: 200 M⁻¹ s⁻¹; Km [3]: 700 ± 100 µM; kcat [3]: 0.2 ± 0.03 s⁻¹; kcat/Km [3]: 300 M⁻¹ s⁻¹; Km [4]: 200 ± 40 µM; kcat [4]: 0.06 ± 0.01 s⁻¹; kcat/Km [4]: 300 M⁻¹ s⁻¹; Km [5]: 200 ± 30 µM; kcat [5]: 1.5 ± 0.1 s⁻¹; kcat/Km [5]: 8000 M⁻¹ s⁻¹; Km [6]: 700 ± 200 µM; kcat [6]: 0.3 ± 0.03 s⁻¹; kcat/Km [6]: 400 M⁻¹ s⁻¹
B2,200 ± 10 µM,0.9 ± 0.02 s⁻¹,5000 M⁻¹ s⁻¹,–
B3,400 ± 10 µM,0.8 ± 0.1 s⁻¹,2000 M⁻¹ s⁻¹,–
B4,500 ± 100 µM,1.8 ± 0.2 s⁻¹,4000 M⁻¹ s⁻¹,–
B5,400 ± 10 µM,1.2 ± 0.1 s⁻¹,3000 M⁻¹ s⁻¹,–
B6,1700 ± 300 µM,2.9 ± 0.3 s⁻¹,2000 M⁻¹ s⁻¹,–
B7,600 ± 100 µM,5.3 ± 0.3 s⁻¹,9000 M⁻¹ s⁻¹,–
B8,300 ± 40 µM,1.1 ± 0.1 s⁻¹,4000 M⁻¹ s⁻¹,–
B9,500 ± 100 µM,1.7 ± 0.1 s⁻¹,3000 M⁻¹ s⁻¹,–
B10,400 ± 100 µM,3 ± 0.2 s⁻¹,8000 M⁻¹ s⁻¹,–
